# Results as given in patent US20200317768A1 (published 2020).
# Where a chain is given by its changes, count along the chain named. Names may count otherwise.
# T1: cynomolgus monkey FcγRIIa1 extracellular domain, C-terminal His-tag (cynomolgus monkey)
# T1 construct: also called cyno FcγRIIa1; FcgRIIa1
# T1 chain: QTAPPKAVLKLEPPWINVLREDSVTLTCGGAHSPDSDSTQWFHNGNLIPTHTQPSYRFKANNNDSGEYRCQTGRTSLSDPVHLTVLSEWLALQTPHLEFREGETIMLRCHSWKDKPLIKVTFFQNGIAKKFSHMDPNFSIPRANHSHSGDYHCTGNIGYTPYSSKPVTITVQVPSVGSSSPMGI
# T2: cynomolgus monkey FcγRIIa2 extracellular domain, C-terminal His-tag (cynomolgus monkey)
# T2 construct: also called cyno FcγRIIa2; FcgRIIa2
# T2 chain: T1 chain with P95T, T121A, I127K, A128S, K130N, D135N, R142Q
# T3: cynomolgus monkey FcγRIIa3 extracellular domain, C-terminal His-tag (cynomolgus monkey)
# T3 construct: also called cyno FcγRIIa3; FcgRIIa3
# T3 chain: T1 chain with P95T, T121A, A128S, H133P, D135N
# T4: cynomolgus monkey FcγRIIb extracellular domain, C-terminal His-tag (cynomolgus monkey)
# T4 construct: also called cyno FcγRIIb; cynoFcγRIIb
# T4 chain: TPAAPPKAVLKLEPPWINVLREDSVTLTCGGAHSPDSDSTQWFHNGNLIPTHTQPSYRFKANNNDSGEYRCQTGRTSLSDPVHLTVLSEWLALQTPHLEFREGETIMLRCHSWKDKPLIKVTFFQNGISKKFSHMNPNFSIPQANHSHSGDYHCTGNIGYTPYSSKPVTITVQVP
# T5: cynomolgus monkey FcγRIIIaS extracellular domain, C-terminal His-tag (cynomolgus monkey, UniProt Q8SPW2 21-206 at identity 1.00))
# T5 construct: also called cyno FcγRIIIaS; FcgRIIIaS
# T5 chain: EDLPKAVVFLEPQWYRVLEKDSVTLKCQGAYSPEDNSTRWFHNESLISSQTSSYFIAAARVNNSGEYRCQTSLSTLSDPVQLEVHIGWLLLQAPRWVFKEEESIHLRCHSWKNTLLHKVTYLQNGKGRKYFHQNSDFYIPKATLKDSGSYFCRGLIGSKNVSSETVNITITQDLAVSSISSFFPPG
# T6: human FcγRIIaH extracellular domain, C-terminal His-tag (human, UniProt P12318 34-217)
# T6 construct: also called human FcγRIIa (type H); FcgRIIaH
# T6 sequence: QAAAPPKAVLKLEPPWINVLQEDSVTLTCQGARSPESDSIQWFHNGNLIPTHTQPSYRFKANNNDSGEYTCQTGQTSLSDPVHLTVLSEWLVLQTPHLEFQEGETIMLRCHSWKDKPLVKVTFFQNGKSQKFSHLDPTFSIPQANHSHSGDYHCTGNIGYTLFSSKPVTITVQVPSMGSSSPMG
# B1: MS_M103205H795-SG1/M103202L889-SK1 (antibody, human IgG1, kappa)
# heavy: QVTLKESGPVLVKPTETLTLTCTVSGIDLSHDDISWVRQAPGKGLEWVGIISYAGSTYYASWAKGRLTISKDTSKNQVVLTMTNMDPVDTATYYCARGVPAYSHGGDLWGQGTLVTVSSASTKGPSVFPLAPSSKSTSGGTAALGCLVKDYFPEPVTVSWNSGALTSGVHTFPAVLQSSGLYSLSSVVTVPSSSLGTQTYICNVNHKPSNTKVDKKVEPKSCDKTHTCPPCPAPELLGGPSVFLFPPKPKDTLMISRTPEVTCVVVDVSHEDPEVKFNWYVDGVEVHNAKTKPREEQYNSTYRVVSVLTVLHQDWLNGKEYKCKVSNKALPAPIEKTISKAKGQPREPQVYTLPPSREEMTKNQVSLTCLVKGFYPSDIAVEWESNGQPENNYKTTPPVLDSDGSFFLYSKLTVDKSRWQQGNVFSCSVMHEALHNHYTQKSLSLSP
# light: DIVMTQSPATLSLSPGERATLSCTSSQSVYHANWLSWFQQKPGQPPKLLIYWASTLAYGVPSRFSGSGSGTDFTLTISSLQPEDAATYYCAGGYGGGRYAFGQGTKVEIKRTVAAPSVFIFPPSDEQLKSGTASVVCLLNNFYPREAKVQWKVDNALQSGNSQESVTEQDSKDSTYSLSSTLTLSKADYEKHKVYACEVTHQGLSSPVTKSFNRGEC
# notes: also called MS1032LO06-SG1
# B2: M103205H795-MY009/M103202L889-SK1 (antibody, human IgG1, kappa)
# heavy: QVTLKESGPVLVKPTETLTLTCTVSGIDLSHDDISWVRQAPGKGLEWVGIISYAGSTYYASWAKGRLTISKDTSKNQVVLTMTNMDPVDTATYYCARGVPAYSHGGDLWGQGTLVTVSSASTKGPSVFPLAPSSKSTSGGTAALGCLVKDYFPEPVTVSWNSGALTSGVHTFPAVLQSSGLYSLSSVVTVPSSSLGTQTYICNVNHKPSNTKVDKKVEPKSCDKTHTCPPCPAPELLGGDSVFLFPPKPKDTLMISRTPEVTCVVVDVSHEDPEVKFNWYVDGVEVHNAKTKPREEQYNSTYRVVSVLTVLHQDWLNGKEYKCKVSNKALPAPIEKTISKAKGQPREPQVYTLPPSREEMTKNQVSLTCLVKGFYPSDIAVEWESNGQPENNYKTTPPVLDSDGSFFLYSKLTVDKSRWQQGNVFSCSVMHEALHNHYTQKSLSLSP
# light: B1 light
# notes: CH MY009 = SG1 with P238D (EU numbering); also called MS1032LO06-MY009
# Legend:
# [1] = target: T1, cynomolgus monkey FcγRIIa1 …; assay: SPR; FcgR bound per captured antibody, normalized to SG1
# Protocol: (§1) The kinetic analysis of interactions between these antibodies and FcγR was carried out using BIACORE® T200 or BIACORE® 4000 (GE Healthcare). HBS-EP+ (GE Healthcare) was used as the running buffer, and the measurement temperature was set to 25° C. A chip produced by immobilizing Protein A. Protein A/G or mouse anti-human IgG kappa light chain (BD Biosciences) onto a Series S Sensor Chip CM4 or CM5 (GE Healthcare) by the amine-coupling method was used. […] After the measurement, the antibody captured on the chip was washed off by allowing reaction with 10 mM glycine-HCl, pH1.5 and 25 mM NaOH so that the chip was regenerated and used repeatedly. The sensorgrams obtained as measurement results were analyzed by the 1:1 Langmuir binding model using the BIACORE® Evaluation Software to calculate the binding rate constant ka (L/mol/s) and dissociation rate constant kd (l/s), and the dissociation constant KD (mol/L) was calculated from these values. […] Regarding such interactions, KD values were calculated using the following 1:1 binding model described in BIACORE® T100 Software Handbook BR1006-48 Edition AE.
# (§2) The value of the amount of FcγR binding was obtained by dividing the amount of FcγR bound by the amount of each antibody captured.
# [2] = target: T2, cynomolgus monkey FcγRIIa2 …; assay: as above
# Protocol: as §1, §2
# [3] = target: T3, cynomolgus monkey FcγRIIa3 …; assay: as above
# Protocol: as §1, §2
# [4] = target: T4, cynomolgus monkey FcγRIIb extracellular …; assay: as above
# Protocol: as §1, §2
# [5] = target: T5, cynomolgus monkey FcγRIIIaS …; assay: as above
# Protocol: as §1, §2
# [6] = target: T5, cynomolgus monkey FcγRIIIaS …; assay: SPR (BIACORE) 25C, antibody captured, FcgR as analyte; weak binding, KD by Equation 2
# Protocol: as §1
# (§3) The behavior of interacting molecules according to the 1:1 binding model on BIACORE® can be described by Equation 1: Req=C·R max/(KD+C)+RI, wherein, Req is a plot of steady-state binding levels to analyte concentration. […]
# [7] = target: T6, human FcγRIIaH extracellular domain, …; assay: as above
# Protocol: as §1, §3
Binder,amount of FcgR binding (SG1 = 100) [1] [SG1 = 100],amount of FcgR binding (SG1 = 100) [2] [SG1 = 100],amount of FcgR binding (SG1 = 100) [3] [SG1 = 100],amount of FcgR binding (SG1 = 100) [4] [SG1 = 100],amount of FcgR binding (SG1 = 100) [5] [SG1 = 100],Kd [6] [µM],Kd [7] [µM]
B1,100,100,100,100,100,–,–
B2,–,–,–,–,–,100,75
